The values below come from publication PMC3771917, “The Crystal Structure of the Orphan Nuclear Receptor NR2E3/PNR Ligand Binding Domain Reveals a Dimeric Auto-Repressed Conformation” (PLoS ONE, 2013).

B1: NR2E3 LBD (residues 192-410), wild type, as Gal4DBD–NR2E3LBD and VP16AD–NR2E3LBD [human] / itself (parent complex)
chain: DENIDVTSNDPEFPSSPYSSSSPCGLDSIHETSARLLFMAVKWAKNLPVFSSLPFRDQVILLEEAWSELFLLGAIQWSLPLDSCPLLAPPEASAAGGAQGRLTLASMETRVLQETISRFRALAVDPTEFACMKALVLFKPETRGLKDPEHVEALQDQSQVMLSQHSKAHHPSQPVRFGKLLLLLPSLRFITAERIELLFFRKTIGNTPMEKLLCDMFKN

One test covers variants of B1. Briefly: mammalian two hybrid assay; pBind-PNR L372R + pACT-PNR L372R; parent: 0.42; read off a plot.
For DENIDVTSNDPEFPSSPYSSSSPCGLDSIHETSARLLFMAVKWAKNLPVFSSLPFRDQVILLEEAWSELFLLGAIQWSLPLDSCPLLAPPEASAAGGAQGRLTLASMETRVLQETISRFRALAVDPTEFACMKALVLFKPETRGLKDPEHVEALQDQSQVMLSQHSKAHHPSQPVRFGKLRLLLPSLRFITAERIELLFFRKTIGNTPMEKLLCDMFKN [chain 1 L181R], the response is around 0.045 RLU.

Variants of B1 are the subject of the next test. Briefly: mammalian two hybrid assay; pBind-PNR L372/375R + pACT-PNR L372/375R; parent: 0.42; read off a plot.
DENIDVTSNDPEFPSSPYSSSSPCGLDSIHETSARLLFMAVKWAKNLPVFSSLPFRDQVILLEEAWSELFLLGAIQWSLPLDSCPLLAPPEASAAGGAQGRLTLASMETRVLQETISRFRALAVDPTEFACMKALVLFKPETRGLKDPEHVEALQDQSQVMLSQHSKAHHPSQPVRFGKLRLLRPSLRFITAERIELLFFRKTIGNTPMEKLLCDMFKN [chain 1 L181R, chain 1 L184R]: the response was around 0.055 RLU.

The variants in the next test derive from B1. Briefly: mammalian two hybrid assay; pBind-PNR L375R + pACT-PNR L375R; parent: 0.42; read off a plot.
Turning to DENIDVTSNDPEFPSSPYSSSSPCGLDSIHETSARLLFMAVKWAKNLPVFSSLPFRDQVILLEEAWSELFLLGAIQWSLPLDSCPLLAPPEASAAGGAQGRLTLASMETRVLQETISRFRALAVDPTEFACMKALVLFKPETRGLKDPEHVEALQDQSQVMLSQHSKAHHPSQPVRFGKLLLLRPSLRFITAERIELLFFRKTIGNTPMEKLLCDMFKN [chain 1 L184R], the response is around 0.045 RLU.
